Experimental data: the domain aggregation screens of Martell et al. (2025)

Assay: soluble fraction after stress (log2 fold change); higher = more stays soluble; pooled small domains, quantitative proteomics
Settings: stress: pH 4
How it was run: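 Aggregation propensity is read out as the fold change in how much of each domain remains soluble after acid stress. The custom small-domain libraries were pooled, held at pH 4 and analysed with high-throughput quantitative proteomics. On the log2 scale used, higher values mean more of the domain stayed soluble.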

“HMSEATTVNYKYAVTISDLRIRKGPGTNYGSVGYTGKGVFTIVAEKGGWGKLKSGAGWISLNSKYGHKVS” and “HMSEEAMVSNFRQQEILELARKDGKVTVDGLAELYDVTVQTIRRDLSDLADSGRLKRVHGGAVVPS” are within 0.2 log units of each other in “soluble fraction (log2)” value: -0.314 for the first, -0.465 for the second.

Going from “HMSEFGENLKKLRTARDLTQQELGAKVGLSKAVVSKYENGLGYPTFDVLIRIAAYFGVTTDYLLGV” to “HMSEFSDRFRLLKDESGATLKELSEQLDITVPNLSYYMKGREPSYDILIKIADYFGVTTDWLIGRTDER”, the “soluble fraction (log2)” value falls from -0.309 to -0.643.

First: HMSEILQLINKIDKKLEKGYTFANISRNHYEKIYKEEILNLYKTSKLKGEAEDSIKEVLESLLGDLRKP
Second: HMSEISAEAGKRIRYFRKSRSMTLEELAAVIHKSKATLSKYETGEISIDLDTLYDLAVALQVRAEQLLPAS
The “soluble fraction (log2)” value of the first is higher: 0.368 for the first, -0.764 for the second.

“HMSEITMMQMEIPEGHNWENRLVKDVSMPTGSLAVMIKRHGETLIPGGDTRILAGDTIVLSVPAYESG” and “HMSEIYVDDINRKILYLLSQGIKTKSLLEHIPLSMSGIEKRKKQLKMLFSVEDGKDETLLEMAKEKGF” are within 0.2 log units of each other in “soluble fraction (log2)” value: -1.03 for the first, -1.07 for the second.

“HMSEKAQSENEDLIKILALLIHAAKIDENYSEKEKKLIISFAEMSSNKKLDREQINSLVDKAEQYEK” and “HMSEKLLTLNEISEKLRVSRHTVQAWVSPSSPNHRPEFSSLARHAGRKTVFLESDVDAWLAQRR” are within 0.2 log units of each other in “soluble fraction (log2)” value: -0.507 for the first, -0.385 for the second.

First: HMSEKYPPIDWNNIKTGQSVLIKDINQVVSLTKLPDSKGFAEVQMGLIKTKIKAEKLAATDKKPNK
Second: HMSELDSYIGARLRMRRLMLGMSQEALGEKLSLTFQQIQKYEKGTNRVSASRLYELAQVLDVPVQFFFDGA
The “soluble fraction (log2)” value of the first is higher: -0.0179 for the first, -1.39 for the second.

“HMSENDTILAKFASIINNKSLELVIFPDTAYLKGQVSTPEDKARAETVAQSLLGSKPLISLIEFE” and “HMSENPLTSREIEIVQLLANGKTTKSIAEELHLSNGTIRNYVSIVLDKLNVSNRIEAIRKALDKGWL” are within 0.2 log units of each other in “soluble fraction (log2)” value: -0.167 for the first, -0.0724 for the second.

Going from “HMSEPQEISYSDFIEQVNRNEIRQVEFDGQHEYLTVIRKDTSRFKVIIPAPDPRLLDDLMEHDVEIVGKE” to “HMSEQYEQIQLALKTLTQDEQDIVRLVVVEGASLRTAGKNLGVSAMTIQRRLKRALARLRDLLAS”, the “soluble fraction (log2)” value falls from 0.0554 to -0.858.

Compared with “HMSESKYKMIKNWIKSKILDGTLVPNQKIYSESELMEIFDVSRHTVRLAIGELVSEGYLFKRQGTGTFVTQ”, “HMSETTSRVLQLLGLLQARRVWTGQELADRLGVTGRSVRRDIERLRDLGYPVHASKGRDGGYQLGA” is higher in “soluble fraction (log2)” value: -0.763 for the first, -0.222 for the second.

“HMSEYILATNDGEFLRITSYSKEEGGMLVWEKTSSIVSAEHKVIPYSQIINIKDRNGDVVWDKD” and “HMSEYNPGIYRVTDPALNIRTGPGVEYPVVGVIKDQGSYTITEIRNKSWGRLLSGAGSTAIKHIVFT” are within 0.2 log units of each other in “soluble fraction (log2)” value: -0.0816 for the first, -0.173 for the second.

Going from “HMSFEITGDELILRFVKDKGGATTEQIRKHWEASNRGGKSDNNLTNLVKSGKLLRSKDPNGPGSLYTAS” to “HMSFESMGLTPRQADVLTLLLQGKSNKDIARRLVLSVETVKDHVQAVLRALGVSSRTQAVLAVGQMTQQ”, the “soluble fraction (log2)” value rises from -0.749 to -0.37.

First: HMSFGYFQLRAKDPQKLKSVLEKIPQIQSIKEEKGDLIGYLNADMEAEELSQKLAAAKIFVTHMAKKK
Second: HMSFISRMVVAVEDIALSTRPNSTPSGDKYVSKGTVLLMEKRENDWVEVRQPSSPLSGWAPKTSLLSV
The “soluble fraction (log2)” value of the first is higher: 0.216 for the first, -0.426 for the second.

First: HMSFNLSETKKLILEEIQKGVSSVTQIAATAGISKGMTYNHLRELKLMGYIADGDSGYVITDAGKIAS
Second: HMSFRYLHVKRQLMSLIGTMNAHERLPSRTDLSETFQVARTTIERAISELIGEGWLYARDGSGTYVAER
The “soluble fraction (log2)” value of the first is higher: -0.323 for the first, -0.919 for the second.

Going from “HMSFSTHHEYYIYNLAVDMRKGYDGLSGLVVNELGRQPWDGSVYVFFNTMRDKVKLLVWDTDGYVIYSKR” to “HMSFTDLILKSANAIDEMGGIWENGKQILGEKAIAIHEEIVDNGLNPDKDGFYKLANGQMIQYG”, the “soluble fraction (log2)” value falls from -0.505 to -0.85.

“HMSFVEVTVSELKNYVNSHARIKLKSGKEFKGFILDANEEGVIIKVQLRGGTAESTISYNRIDRAAVF” and “HMSGAERAAALLVALGPEVASEIMKFLDDESIQKLASEIAKIEVLSPQEKEDLIGQFLLELKKT” are within 0.2 log units of each other in “soluble fraction (log2)” value: -1.11 for the first, -0.982 for the second.

First: HMSGAWEVGLLRQFTDWMGTQYNAYAGRNFDAITVAQVAEKNPELLTPFVESFFKERVEPALAAG
Second: HMSGEDYLERILMLKEKHGNVRAIDIANSMNFSKPSVSIALHKLSENGYVVIQNNGAIELTEKGLEVAT
The “soluble fraction (log2)” value of the first is lower: -0.589 for the first, -0.0506 for the second.

First: HMSGEIPFPPAFKPSADHIAIASEKGINIETELLNFRDYHQARGTKLIDWNSAFRVWLRNAR
Second: HMSGEITVPNLIGVEAIQAKTLLIQAGFLIKEFYDLDSTQPAGVVIRQAPEAGTTQTIGKSVTITINKQ
The “soluble fraction (log2)” value of the first is lower: -0.869 for the first, 0.106 for the second.

Going from “HMSGENAVLTEGTMVTVRRGGETITATARKETVKQFLSRMDIIPGSREMVGIELMENSVMLTISD” to “HMSGFPTDAQIVREIRNILPTLENPTPRMVRKALENTFEVDMGESKTKKYINNIIITEYEKWSSVQSIRE”, the “soluble fraction (log2)” value rises from -1.02 to -0.804.

First: HMSGGNTSAFKGKLNYEYRGNDTIITGSTYPVKELIKKAGGRWDPGSSAWIIKGRHVSDNEIF
Second: HMSGQKDVPDLYGMTVKQAKKEVEAAGFKLKEGKEVYSNDYSKGQIAEQDPESGSKAKKGSSITVHVSKG
The “soluble fraction (log2)” value of the first is lower: -0.317 for the first, 0.22 for the second.
